Our source for the IC50 values is patent US20220389120A1.

The target in the assay is PD-1 (UniProt Q15116). The assay can be described thus: PD-1 blocking assay.
PD-1, sequence (Q15116 25-167): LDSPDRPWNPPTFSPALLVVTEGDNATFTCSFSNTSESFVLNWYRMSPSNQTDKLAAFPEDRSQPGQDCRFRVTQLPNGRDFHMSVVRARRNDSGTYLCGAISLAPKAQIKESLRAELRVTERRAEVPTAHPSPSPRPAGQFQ

The substance Keytruda came in with an IC50 of 0.282 nM.
